The term EC50 denotes the concentration needed to bring the measured effect to its halfway point. Read a low EC50 as an effect from little substance.

This passage reports EC50 results from patent US20160168247A1 (published 2016).

Substitutions are numbered along the chain they refer to.

The labels stand for the following.
T1: HSC-F (cynomolgus monkey, UniProt Q95LI8 22-171; Q95LI7 23-181)
T1 chain: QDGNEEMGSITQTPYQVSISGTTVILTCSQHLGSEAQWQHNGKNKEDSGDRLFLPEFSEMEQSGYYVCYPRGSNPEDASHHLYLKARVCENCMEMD

B1: bsIgG1-huCD3-H4L3×HER2-LFLEDA (bispecific antibody, V domains shown)
VH 1: EVKLVESGGGLVKPGRSLRLSCAASGFTFNTYAMNWVRQAPGKGLEWVARIRSKYNNYATYYADSVKDRFTISRDDSKSILYLQMNSLKTEDTAMYYCVRHGNFGNSYVSWFAYWGQGTMVTVSS
VL 1: QAVVTQEPSFSVSPGGTVTLTCRSSTGAVTTSNYANWVQQTPGQAFRGLIGGTNKRAPGVPARFSGSILGNKAALTITGAQADDESDYYCALWYSNLWVFGGGTKLTVL
VH 2: QVQLVQSGAEVKKPGASVKVSCKASGYTFTNYGISWVRQAPGQGLEWMGWLSAYSGNTIYAQKLQGRVTMTTDTSTTTAYMELRSLRSDDTAVYYCARDRIVVRPDYFDYWGQGTLVTVSS
VL 2: EIVLTQSPATLSLSPGERATLSCRASQSVSSYLAWYQQKPGQAPRLLIYDASNRATGIPARFSGSGSGTDFTLTISSLEPEDFAVYYCQQRSNWPRTFGQGTKVEIK
B2: bsIgG1-huCD3-H3L3×HER2-LFLEDA (bispecific antibody, V domains shown)
VH 1: B1 VH 1 with M120L
VL 1: B1 VL 1
VH 2: B1 VH 2
VL 2: B1 VL 2
B3: IgG1-CD3-LFLEDA (parental chimeric CD3 antibody with non-activating LFLEDA mutations) (antibody, V domains shown)
VH: B1 VH 1 with V5L, K13Q, G15K, R16G, R19K, K78Q, S87N, M120L, S125A
VL: QAVVTQESALTTSPGETVTLTCRSSTGAVTTSNYANWVQEKPDHLFTGLIGGTNKRAPGVPARFSGSLIGDKAALTITGAQTEDEAIYFCALWYSNLWVFGGGTKLTVL
B4: bsIgG1-huCD3-H4L1×HER2-LFLEDA (bispecific antibody, V domains shown)
VH 1: B1 VH 1
VL 1: not shown
VH 2: B1 VH 2
VL 2: B1 VL 2
B5: bsIgG1 huCD3-H3L1×HER2-LFLEDA (bispecific antibody, V domains shown)
VH 1: B1 VH 1 with M120L
VL 1: not shown
VH 2: B1 VH 2
VL 2: B1 VL 2
B6: bsIgG1-huCD3-H1L3×HER2-LFLEDA (bispecific antibody, V domains shown)
VH 1: B1 VH 1 with K13Q, R16G, I80S, S87N, M120L
VL 1: B1 VL 1
VH 2: B1 VH 2
VL 2: B1 VL 2
B7: IgG1-huCD3-H4L3-LFLEDA (antibody, V domains shown)
VH: B1 VH 1
VL: B1 VL 1
B8: IgG1-huCD3-H1L3-LFLEDA (antibody, V domains shown)
VH: B1 VH 1 with K13Q, R16G, I80S, S87N, M120L
VL: B1 VL 1
B9: IgG1-huCD3-H3L3-LFLEDA (antibody, V domains shown)
VH: B1 VH 1 with M120L
VL: B1 VL 1
B10: IgG1-huCD3-H4L1-LFLEDA (antibody, V domains shown)
VH: B1 VH 1
VL: not shown
B11: IgG1-huCD3-H1L1-LFLEDA (antibody, V domains shown)
VH: B1 VH 1 with K13Q, R16G, I80S, S87N, M120L
VL: not shown
B12: IgG1-huCD3-H1L3 (antibody, V domains shown)
VH: B1 VH 1 with K13Q, R16G, I80S, S87N, M120L
VL: B1 VL 1
B13: IgG1-huCD3-H3L3 (antibody, V domains shown)
VH: B1 VH 1 with M120L
VL: B1 VL 1
B14: IgG1-huCD3-H1L2 (antibody, V domains shown)
VH: B1 VH 1 with K13Q, R16G, I80S, S87N, M120L
VL: B1 VL 1 with D87I, Y89F
B15: IgG1-huCD3-H4L1 (antibody, V domains shown)
VH: B1 VH 1
VL: not shown
B16: bsIgG1 CD3×HER2 (bispecific antibody, V domains shown)
VH 1: B1 VH 1 with V5L, K13Q, G15K, R16G, R19K, K78Q, S87N, M120L, S125A
VL 1: B3 VL
VH 2: B1 VH 2
VL 2: B1 VL 2
B17: IgG1-huCD3-H1L1 (antibody, V domains shown)
VH: B1 VH 1 with K13Q, R16G, I80S, S87N, M120L
VL: not shown
B18: bsIgG1-huCD3-H3L3xHER2-LFLEDA (bispecific antibody, V domains shown)
VH 1: B1 VH 1 with M120L
VL 1: B1 VL 1
VH 2: B1 VH 2
VL 2: B1 VL 2
B19: bsIgG1-huCD3-H1L1xHER2-LFLEDA (bispecific antibody, V domains shown)
VH 1: B1 VH 1 with K13Q, R16G, I80S, S87N, M120L
VL 1: not shown
VH 2: B1 VH 2
VL 2: B1 VL 2
B20: bsIgG1-huCD3-H4L1xHER2-LFLEDA (bispecific antibody, V domains shown)
VH 1: B1 VH 1
VL 1: not shown
VH 2: B1 VH 2
VL 2: B1 VL 2
B21: bsIgG1-huCD3-H1L3xHER2-LFLEDA (bispecific antibody, V domains shown)
VH 1: B1 VH 1 with K13Q, R16G, I80S, S87N, M120L
VL 1: B1 VL 1
VH 2: B1 VH 2
VL 2: B1 VL 2
B22: bsIgG1-huCD3-H3L1xHER2-LFLEDA (bispecific antibody, V domains shown)
VH 1: B1 VH 1 with M120L
VL 1: not shown
VH 2: B1 VH 2
VL 2: B1 VL 2

The target in one assay is T2, human CD3 (on the human T-cell line Jurkat or on human T-cells) (human, UniProt P09693 23-182; P20963 22-164). The experiment in a line: FACS binding. A general note: A flow cytometer gives signals particle by particle.
T2 sequence (chain, as listed by the source, chain 1 of 4): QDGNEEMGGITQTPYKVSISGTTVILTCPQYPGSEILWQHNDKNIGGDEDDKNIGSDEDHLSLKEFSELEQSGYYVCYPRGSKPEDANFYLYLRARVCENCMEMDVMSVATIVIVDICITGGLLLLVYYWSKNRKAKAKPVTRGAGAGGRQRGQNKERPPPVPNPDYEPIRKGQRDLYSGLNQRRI
T2 sequence (chain, as listed by the source, chain 2 of 4): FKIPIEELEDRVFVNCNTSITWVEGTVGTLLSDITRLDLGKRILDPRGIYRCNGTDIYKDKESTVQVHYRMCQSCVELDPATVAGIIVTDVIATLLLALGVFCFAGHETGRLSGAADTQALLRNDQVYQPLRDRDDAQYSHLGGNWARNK
T2 sequence (P09693 23-182, chain 3 of 4): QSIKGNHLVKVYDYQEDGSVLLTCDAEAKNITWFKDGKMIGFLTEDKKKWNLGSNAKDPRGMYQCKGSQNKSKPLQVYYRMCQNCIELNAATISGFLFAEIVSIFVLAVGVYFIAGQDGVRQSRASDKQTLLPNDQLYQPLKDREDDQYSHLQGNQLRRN
T2 sequence (P20963 22-164, chain 4 of 4): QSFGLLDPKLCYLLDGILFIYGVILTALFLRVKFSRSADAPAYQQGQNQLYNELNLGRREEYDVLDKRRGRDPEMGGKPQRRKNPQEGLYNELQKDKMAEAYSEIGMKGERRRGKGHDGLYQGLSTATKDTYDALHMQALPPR
B1 yielded an EC50 of 0.59 µg/mL. Still for that read-out and setting: under B2 stands 0.74 µg/mL. Same read-out and setting: in the case of B3 it was 0.18 µg/mL; in that of B4, 0.62 µg/mL. Same read-out and setting: in the case of B5 it was 0.64 µg/mL; in that of B6, 0.58 µg/mL.

A further assay addresses T1, HSC-F. The assay can be described thus: FACS binding.
Consider B7, for which it took 0.02 µg/mL to reach a half-maximal effect (EC50). Molecule B8 yielded an EC50 of 0.03 µg/mL.

In turn, B9 displayed an EC50 of 0.03 µg/mL.

The molecule B10 registered an EC50 of 0.03 µg/mL. B11 had an EC50 of 0.03 µg/mL.

For a further assay, the target named is T2, human CD3 (on the human T-cell line …). The experiment in a line: FACS binding; Fig 1A.
The molecule B12 had an EC50 of 0.06 µg/mL.

In turn, B3 yielded a concentration for a half-maximal effect (EC50) of 0.08 µg/mL.

B13 gave an EC50 of 0.02 µg/mL. Regarding B14, the EC50 came to 0.08 µg/mL. For B15, the midpoint of the response, the EC50, lay at 0.05 µg/mL.

The next assay has the same target. The experiment in a line: FACS binding. The source holds these as a separate data set.
In turn, B7 came in with an EC50 of 0.08 µg/mL. Still for that read-out and setting: in the case of B8 it was 0.11 µg/mL. B3 yielded an EC50 of 0.27 µg/mL. Same read-out and setting: in the case of B9 it was 0.08 µg/mL; in that of B10, 0.06 µg/mL.

The next assay has the same target. The assay can be described thus: FACS binding; Fig 1B.
As to B16, a half-maximal effect (EC50) was put at 0.68 µg/mL.

Molecule B3 came in with an EC50 of 0.07 µg/mL. Against the preceding molecule, the EC50 is about 9.7-fold lower.

B5 registered an EC50 of 0.28 µg/mL.

In another assay the target is T1, HSC-F. The assay can be described thus: FACS binding; Fig 2A.
In turn, B17 showed an EC50 of 0.37 µg/mL. Same read-out and setting: in the case of B12 it was 0.28 µg/mL; in that of B13, 0.11 µg/mL; in that of B14, 0.31 µg/mL. On the same count and under the same terms, in the case of B15 it was 0.26 µg/mL.

The next assay deals with T1, HSC-F. The assay can be described thus: FACS binding. The source holds these as a separate data set.
B18 had an EC50 of 0.26 µg/mL.

For B19, it took 0.32 µg/mL to reach a half-maximal effect (EC50). Still for that read-out and setting: in the case of B20 it was 0.36 µg/mL; in that of B21, 0.25 µg/mL; in that of B22, 0.28 µg/mL.
